For orientation: stoichiometry N means a count of units in the complex or per binding partner.

The text below walks through data of article PMC11531391 (Cell, 2024).

Values joined by “and” are separate entries in the source; they are usually repeats but may differ in a detail not shown here. Equal entries are not always repeated.

The target in experiment [1] is L-TGF-β1 (latent TGF-β1 dimer, R249A, as it stands in L-TGF-β1/GARP) (human). The experiment in a line: cryo-EM structure; purified L-TGF-β1/GARP or L-TGF-β3/GARP alone, 0.3 mg/ml.
The target in experiment [2] is T1, L-TGF-β3/GARP (purified complex of latent TGF-β3 with the GARP ectodomain) (human, UniProt Q14392 20-627).
T1 chain 1: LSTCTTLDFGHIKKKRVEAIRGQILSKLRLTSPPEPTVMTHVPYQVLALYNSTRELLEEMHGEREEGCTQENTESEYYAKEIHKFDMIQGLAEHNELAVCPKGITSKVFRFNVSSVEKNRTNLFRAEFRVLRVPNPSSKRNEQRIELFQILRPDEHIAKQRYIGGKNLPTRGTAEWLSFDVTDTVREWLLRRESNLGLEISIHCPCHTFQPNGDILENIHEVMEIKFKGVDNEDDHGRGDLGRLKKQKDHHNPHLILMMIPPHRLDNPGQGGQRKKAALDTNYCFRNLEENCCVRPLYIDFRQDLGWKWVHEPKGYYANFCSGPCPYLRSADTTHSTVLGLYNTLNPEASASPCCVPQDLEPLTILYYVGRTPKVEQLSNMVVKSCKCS
T1 chain 2: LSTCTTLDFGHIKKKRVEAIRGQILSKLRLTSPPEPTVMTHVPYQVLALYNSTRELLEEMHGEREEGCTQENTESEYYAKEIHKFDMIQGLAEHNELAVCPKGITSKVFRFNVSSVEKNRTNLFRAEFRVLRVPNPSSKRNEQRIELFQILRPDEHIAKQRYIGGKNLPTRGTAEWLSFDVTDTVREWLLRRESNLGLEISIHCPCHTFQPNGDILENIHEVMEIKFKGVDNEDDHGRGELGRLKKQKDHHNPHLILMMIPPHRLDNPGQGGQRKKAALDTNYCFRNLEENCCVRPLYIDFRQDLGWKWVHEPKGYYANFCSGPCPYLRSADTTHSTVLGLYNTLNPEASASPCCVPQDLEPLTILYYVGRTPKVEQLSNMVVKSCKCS
T1 chain 3: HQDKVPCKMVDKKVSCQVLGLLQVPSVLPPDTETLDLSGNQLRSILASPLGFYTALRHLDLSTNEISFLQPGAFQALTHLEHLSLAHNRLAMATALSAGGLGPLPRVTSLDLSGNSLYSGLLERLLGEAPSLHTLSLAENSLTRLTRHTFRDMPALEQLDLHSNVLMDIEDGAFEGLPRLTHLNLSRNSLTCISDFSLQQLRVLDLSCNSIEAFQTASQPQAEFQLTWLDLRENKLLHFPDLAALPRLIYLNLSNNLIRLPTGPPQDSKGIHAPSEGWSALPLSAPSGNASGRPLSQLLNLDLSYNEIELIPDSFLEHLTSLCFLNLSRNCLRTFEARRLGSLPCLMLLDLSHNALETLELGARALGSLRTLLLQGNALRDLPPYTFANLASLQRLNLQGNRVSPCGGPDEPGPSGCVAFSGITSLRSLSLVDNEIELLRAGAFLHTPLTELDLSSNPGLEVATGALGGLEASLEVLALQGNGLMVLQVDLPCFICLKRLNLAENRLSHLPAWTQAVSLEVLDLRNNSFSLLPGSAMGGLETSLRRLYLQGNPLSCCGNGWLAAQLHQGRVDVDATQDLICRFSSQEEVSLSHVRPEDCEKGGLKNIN
Briefly: mass photometry; L-TGF-β3/GARP with αvβ8; TBS with 1 mM CaCl2, 1 mM MgCl2. Particulars: both partners purified.

The target in experiment [3] is L-TGF-β1/GARP (secreted complex of latent TGF-β1 with the GARP ectodomain) (human) (UniProt Q14392). Briefly: mass photometry + cryo-EM structure; L-TGF-β1/GARP mixed with recombinant αvβ8 ectodomain at 1:1 molar ratio; mass photometry in TBS with 1 mM CaCl2, 1 mM MgCl2.

Consider “L-TGF-β1 (latent TGF-β1 dimer, R249A, as it stands in L-TGF-β1/GARP) (natural protein)”, for which the stoichiometry N in experiment [1] came out at 2.

B1: secreted ectodomain of αvβ8 integrin (receptor)
chain 1: FNLDVDSPAEYSGPEGSYFGFAVDFFVPSASSRMFLLVGAPKANTTQPGIVEGGQVLKCDWSSTRRCQPIEFDATGNRDYAKDDPLEFKSHQWFGASVRSKQDKILACAPLYHWRTEMKQEREPVGTCFLQDGTKTVEYAPCRSQDIDADGQGFCQGGFSIDFTKADRVLLGGPGSFYWQGQLISDQVAEIVSKYDPNVYSIKYNNQLATRTAQAIFDDSYLGYSVAVGDFNGDGIDDFVSGVPRAARTLGMVYIYDGKNMSSLYNFTGEQMAAYFGFSVAATDINGDDYADVFIGAPLFMDRGSDGKLQEVGQVSVSLQRASGDFQTTKLNGFEVFARFGSAIAPLGDLDQDGFNDIAIAAPYGGEDKKGIVYIFNGRSTGLNAVPSQILEGQWAARSMPPSFGYSMKGATDIDKNGYPDLIVGAFGVDRAILYRARPVITVNAGLEVYPSILNQDNKTCSLPGTALKVSCFNVRFCLKADGKGVLPRKLNFQVELLLDKLKQKGAIRRALFLYSRSPSHSKNMTISRGGLMQCEELIAYLRDESEFRDKLTPITIFMEYRLDYRTAADTTGLQPILNQFTPANISRQAHILLDCGEDNVCKPKLEVSVDSDQKKIYIGDDNPLTLIVKAQNQGEGAYEAELIVSIPLQADFIGVVRNNEALARLSCAFKTENQTRQVVCDLGNPMKAGTQLLAGLRFSVHQQSEMDTSVKFDLQIQSSNLFDKVSPVVSHKVDLAVLAAVEIRGVSSPDHVFLPIPNWEHKENPETEEDVGPVVQHIYELRNNGPSSFSKAMLHLQWPYKYNNNTLLYILHYDIDGPMNCTSDMEINPLRIKISSLQTTEKNDTVAGQGERDHLITKRDLALSEGDIHTLGCGVAQCLKIVCQVGRLDRGKSAILYVKSLLWTETFMNKENQNHSYSLKSSASFNVIEFPYKNLPIEDITNSTLVTTNVTWGIQPAPMPV
chain 2: EDNRCASSNAASCARCLALGPECGWCVQEDFISGGSRSERCDIVSNLISKGCSVDSIEYPSVHVIIPTENEINTQVTPGEVSIQLRPGAEANFMLKVHPLKKYPVDLYYLVDVSASMHNNIEKLNSVGNDLSRKMAFFSRDFRLGFGSYVDKTVSPYISIHPERIHNQCSDYNLDCMPPHGYIHVLSLTENITEFEKAVHRQKISGNIDTPEGGFDAMLQAAVCESHIGWRKEAKRLLLVMTDQTSHLALDSKLAGIVVPNDGNCHLKNNVYVKSTTMEHPSLGQLSEKLIDNNINVIFAVQGKQFHWYKDLLPLLPGTIAGEIESKAANLNNLVVEAYQKLISEVKVQVENQVQGIYFNITAICPDGSRKPGMEGCRNVTSNDEVLFNVTVTMKKCDVTGGKNYAIIKPIGFNETAKIHIHRNCSCQCEDNRGPKGKCVDETFLDSKCFQCDENKCHFDEDQFSSESCKSHKDQPVCSGRGVCVCGKCSCHKIKLGKVYGKYCEKDDFSCPYHHGNLCAGHGECEAGRCQCFSGWEGDRCQCPSAAAQHCVNSKGQVCSGRGTCVCGRCECTDPRSIGRFCEHCPTCYTACKENWNCMQCLHPHNLSQAILDQCKTSCALMEQQHYVDQTSECFSSPSYLR
notes: integrin αv, truncated (αvtr pcDM8), secreted ectodomain; integrin β8, truncated (β8tr), secreted ectodomain; also called αvβ8tr; truncated αvβ8 ectodomain; source: ExpiCHO, transfected, purified from supernatant (Protein G crosslinked with antibody 8B8, SEC on Superose 6)
For B1, the “stoichiometry N” value in experiment [2] is 1 and 2; in experiment [3], 1 and 2.
